From patent publication US20240218062A1 (DEVELOPMENT CENTER FOR BIOTECHNOLOGY, published 2024) come the findings set out here.

Numbering of substitutions follows the chain as printed.

Assay [1] has as its target NTSR1 linear L2-biotin protein (human) (UniProt P30989). Put plainly: ELISA titration on NTSR1, anti-human IgG-HRP, OD450 minus OD650. For orientation: An ELISA detects its analyte on a solid surface through an enzyme-linked reagent.
The target of assay [2] is NTSR1 protein (UniProt P30989 1-418, limits assumed). Put plainly: SPR, Biacore T200, NTSR1 protein on CM5 chip, multi-cycle kinetics, 25 C. How it is done:
To know the binding kinetics differences among individual anti-NTSR1 antibodies, surface plasmon resonance (SPR) measurement with BIACORE™ T200 (CYTIVA® Inc.) was used as previously described (Karlsson & Falt, (1997) J. Immunol Methods 200:121-133). Carboxymethylated dextran biosensor chips (CM5, CYTIVA® Inc.) were activated with N-ethyl-N′-(3-dimethylaminopropyl)-carbodiimide hydrochloride (EDC) and N-hydroxysuccinimide (NHS) according to the supplier's instructions. NTSR1 protein was diluted with 10 mM sodium acetate, pH 4.0, into 5 μg/ml before injection at a flow rate of 10 μL/minute to achieve approximately 1500 response units (RU) of coupled protein followed by the injection of 1 M ethanolamine to block unreacted groups. For kinetics measurements, two-fold serial dilutions of anti-NTSR1 mAb (0.3125 nM to 40 nM) were injected in HBS-EP+BIACORET™ running buffer provided by the manufacturer (CYTIVA® Inc.) at 25° C. at a flow rate of 30 μL/min, and binding responses on the NTSR1 protein were corrected by subtraction of responses on a blank flow cell. Association rates (kₒₙ or Kₐ) and dissociation rates (koff or Kd) were calculated using a simple one-to-one Langmuir binding model with separate fittings of kₒₙ and koff. (CYTIVA® BIACORET™ Insight Evaluation Software).

In assay [3] the target is T1, NTSR1 on FaDu cells (human, UniProt P30989 1-418).
T1 construct: whole, on cells; Endogenous NTSR1 on the human FaDu cell line; also called NTSR1 expressing cells, FaDu
T1 sequence (P30989 whole entry): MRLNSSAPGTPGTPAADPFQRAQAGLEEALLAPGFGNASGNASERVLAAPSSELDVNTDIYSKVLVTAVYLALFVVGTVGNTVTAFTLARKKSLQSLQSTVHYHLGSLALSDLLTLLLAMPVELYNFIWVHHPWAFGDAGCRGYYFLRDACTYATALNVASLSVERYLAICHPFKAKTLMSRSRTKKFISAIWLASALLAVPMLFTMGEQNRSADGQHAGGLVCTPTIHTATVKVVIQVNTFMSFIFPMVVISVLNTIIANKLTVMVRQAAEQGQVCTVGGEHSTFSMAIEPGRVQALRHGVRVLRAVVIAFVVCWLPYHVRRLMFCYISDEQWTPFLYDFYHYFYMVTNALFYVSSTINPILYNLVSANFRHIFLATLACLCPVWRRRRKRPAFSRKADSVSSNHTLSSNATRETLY
Put plainly: flow cytometry on FaDu cells (internalization assay), 10 µg/mL ADC on ice for 60 min, anti-human IgG PE [left panel (Trimannosyl anti-NTSR1 ADC]. As to the method: FaDu cells were trypsinized, and then harvested and resuspended in FAC buffer. Controls: secondary Ab anti-human IgG PE (1:200) was added to the FaDu cells. The cells were incubated at 4° C. for time intervals of 0, 0.5, 2, 5 and 24 hours, and then washed by 1 mL of FACS buffer. The supernatant was discarded. Testing groups: FaDu cells were pre-incubated with 10 μg/mL ADCs of trimannosyl and anti-NTSR1 antibodies αNTSR1 (AKT2), αNTSR1 (AKT2 Hu/Hu) and αNTSR1 (AKT2 Hu/Hd) in FACS buffer on ice for 60 min, washed three times with FACS buffer, and then incubated at 37° C. for time intervals of 0, 0.5, 2, 5 and 24 hours.
In general terms: Flow cytometry measures light scatter and fluorescence of single cells or particles in a stream.

Assay [4] deals with NTSR1 linear L2-biotin protein (human) (UniProt P30989). Nature of the assay: ELISA on coated NTSR1 linear L2-biotin protein, non-linear regression.
For assay [5], the target named is T1, NTSR1 on FaDu cells. Nature of the assay: flow cytometry on FaDu cells, antibody at 10 ug/ml. How it is done: (§1) Anti-NTSR1 antibodies were used to detect cells that express NTSR1 on the cell surfaces, for example using FACS. NTSR1 expressing cells, FaDu, were harvested and re-suspended in 5% PBS/FBS buffer. The cells (1×10⁵) were incubated with anti-NTSR1 antibody (1-10 μg/ml) or negative control, at 4° C. for 1 hr, and then stained with goat anti-human IgG FITC conjugate ( 1/1000) at 4° C. for 1 hr. For each assay, two additional controls were prepared; one without primary antibody and the other one with absence of any antibody. All treated samples were analyzed with […]™ (BECTON DICKINSON®) and the results were processed by […]™ software (BECTON DICKINSON®).

Assay [6] deals with NTSR1 linear L2-biotin protein (human) (UniProt P30989). Nature of the assay: ELISA titration, plate coated with NTSR1 linear L2-biotin protein, anti-human IgG-HRP.
In assay [7] the target is T1, NTSR1 on FaDu cells. Put plainly: flow cytometry on FaDu cells, antibody at 1 ug/mL. How it is done:
as §1

Chain of NTSR1 protein (P30989 whole entry): as above

B1: humanized antibody AKT2 HuHd (antibody, V domains shown)
VH: QVQLVQSGAEVKKPGASVKVSCKASGYAFTSSWIHWVRQAPGQGLEWMGQIRPNSGNTYYNEKFKVRVTMTRDTSTSTVYMELSSLRSEDTAVYYCARYHYGFDYWGQGTLVTVSS
VL: DIQMTQSPSSLSASVGDRVTITCRSSQSIVHSNGNTYLEWYQQKPGKAPKLLIYKVSNRFSGVPSRFSGSGSGTDFTLTISSLQPEDFATYYCFQGAHLPWTFGQGTKVEIK
notes: Full-length humanized antibody; also called αNTSR1 (AKT2 Hu/Hd)
For orientation: EC50 (read off the curve) means the concentration giving half of the maximal effect. Low values mean higher potency in that assay, high ones lower potency in that assay. The term Kd denotes the concentration at which binding is half-saturated. Low values mean a tighter complex, high ones a looser complex. The koff is the first-order rate constant of dissociation. Usually kon stands for the second-order rate constant of association. Higher therefore signals faster complex formation. In assay [1], B1 registered an EC50 (read off the curve) of 0.06 nM. In assay [2], the Kd is 1.43 nM, the koff came out at 0.000657 s⁻¹ and the kon turned out to be 461000 M⁻¹ s⁻¹.

B2: αNTSR1 (AKT2 Hu/Hu) 4 seco-DUBA (antibody, V domains shown)
VH: B1 VH
VL: DIVMTQTPLSLSVTPGQPASISCRSSQSIVHSNGNTYLEWYLQKPGQSPQLLIYKVSNRFSGVPDRFSGSGSGTDFTLKISRVEAEDVGVYYCFQGAHLPWTFGQGTKVEIK
modifications: seco-DUBA payload conjugated (trimannosyl ADC); site of conjugation not given
notes: Antibody-drug conjugate of the humanized antibody AKT2 HuHu with seco-DUBA; also called trimannosyl anti-NTSR1 ADC of AKT2 HuHu
Regarding B2, the binding result in assay [3] is “binds”.

B3: αNTSR1 (AKT2 Hu/Hd) 4 seco-DUBA (antibody, V domains shown)
VH: B1 VH
VL: B1 VL
modifications: seco-DUBA payload conjugated (trimannosyl ADC); site of conjugation not given
notes: Antibody-drug conjugate of the humanized antibody AKT2 HuHd with seco-DUBA; also called trimannosyl anti-NTSR1 ADC of AKT2 HuHd
As for B3, the binding result in assay [3] was “binds”.

B4: humanized antibody AKT2 HuHu (antibody, V domains shown)
VH: B1 VH
VL: B2 VL
notes: Full-length humanized antibody; also called αNTSR1 (AKT2 Hu/Hu)
As to B4, the EC50 (read off the curve) in assay [1] was 0.06 nM. In assay [2], this molecule showed a Kd of 1.03 nM, a koff of 0.000808 s⁻¹ and a kon of 788000 M⁻¹ s⁻¹.

B5: humanized 7C3 IMGT (7C3 HuHu) (antibody, V domains shown)
VH: B1 VH with A28T, H100Y
VL: B2 VL with A97S
notes: Full-length antibody with human IgG1 / kappa constant regions (plasmids pTCAEDH 7C3 HUVH IgG1 and pTCAEDL 7C3 HUVL Kappa)
B5 displayed a Kd in assay [4] of 0.294 nM. Besides, the “% Flow binding (10 ug/ml)” value in assay [5] came out at 98%. The molecule also had an EC50 (read off the curve) in assay [6] of 0.03 nM. For the same molecule, the “% Flow binding (1 ug/mL)” value in assay [7] came out at 64%.

B6: humanized antibody 7C3 HuHd (antibody, V domains shown)
VH: B1 VH with A28T, H100Y
VL: B1 VL with A97S
notes: Full-length antibody from the human Fc vectors
Take B6: the “% Flow binding (10 ug/ml)” value in assay [5] was 99%. In addition, the “% Flow binding (1 ug/mL)” value in assay [7] was 73%.

B7: mouse-human chimera antibody AKT2 (antibody, V domains shown)
VH: QVQLQQPGSVLVRPGASVKLSCKASGYAFTSSWIHWAKQRPGQGLEWIGQIRPNSGNTYYNEKFKVKATLTVDTSSSTAYVDLSSLTSEDSAVYYCARYHYGFDYWGQGTLVTVSS
VL: DVLMTQTPLSLPVSLGDQASISCRSSQSIVHSNGNTYLEWYLQKPGQSPKLLIYKVSNRFSGVPDRFSGSGSGTDFTLKISRVEAEDLGVYYCFQGAHLPWTFGGGTKLEIK
notes: Mouse variable domains on human constant regions; also called chimera AKT2 mAb; αNTSR1 (AKT2)
Regarding B7, the EC50 (read off the curve) in assay [1] worked out at 0.06 nM. In assay [2], this molecule came in with a Kd of 1.61 nM, a koff of 0.000656 s⁻¹ and a kon of 407000 M⁻¹ s⁻¹.

B8: αNTSR1 (AKT2) 4 seco-DUBA (antibody, V domains shown)
VH: B7 VH
VL: B7 VL
modifications: seco-DUBA payload conjugated (trimannosyl ADC); site of conjugation not given
notes: Antibody-drug conjugate of the mouse-human chimera antibody AKT2 with seco-DUBA; also called trimannosyl anti-NTSR1 ADC of AKT2
On to B8, for which the binding result in assay [3] is “binds”.

B9: mouse-human chimera antibody 7C3 MM (antibody, V domains shown)
VH: B7 VH with A16D, K19M, A28T, L45P, H100Y, L111T
VL: B7 VL with A97S
notes: Mouse 7C3 variable domains sub-cloned into the human Fc chimera expression vectors pTCAEDH and pTCAEDL; The humanized plasmids are named IgG1 and Kappa; also called m7C3; mAb 7C3 MM
In assay [4], B9 came in with a Kd of 0.676 nM. Also, the “% Flow binding (10 ug/ml)” value in assay [5] turned out to be 91%. In addition, in assay [6], the EC50 (read off the curve) worked out at 0.07 nM. Further, the “% Flow binding (1 ug/mL)” value in assay [7] amounted to 31%.
